Experimental data: patent US20210347873A1 (SHANGHAI PHARMAEXPLORER, published 2021)

Legend:
biotinylated hBLyS-ECD [1] = biological target: T1, biotinylated hBLyS-ECD (human, UniProt Q9Y275 134-285, biotinylated with Biotin-X-X-NHS (molar ratio 7:1); sites not stated); assay: blocking ELISA: biotinylated hBLyS-ECD on coated BAFF R, antibody 0.032 nM
T1 construct: also called biotinylated immunogen; BLyS protein
Experimental: (§1) BAFF R (purchased from R & D Systems) was aliquoted into 96-well ELISA plate at 50 ng per well, and the plate was sealed with plastic film and incubated overnight at 4° C. On the next day the plate was washed four times with the plate washing buffer [PBS buffer containing 0.05% (v/v) Tween20] and added with blocking solution [PBS buffer containing 0.05% (v/v) Tween20 and 1% (w/w) BSA], then blocked for 1 hour at room temperature. The blocking solution was removed and 50 μL per well of the lead antibodies prepared in Embodiment 1 and 2 were added followed by the addition of 50 μL per well of the biotinylated hBLyS-ECD prepared in Embodiment 2. After incubation for 1 hour at 37° C., the plate was washed four times with the plate washing buffer [PBS buffer containing 0.05% (v/v) Tween20]. 100 μL per well of HRP-labeled (horseradish peroxidase) avidin (purchased from Sigma) was added and incubated at 37° C. for 1 hour. The plate was then washed four times with the plate washing buffer [PBS buffer containing 0.05% (v/v) Tween20]. 100 μL of TMB substrate was aliquoted into each well and after incubation for 5 minutes at room temperature, then 100 μL of stop solution (1.0 N HCl) was aliquoted into each well. A₄₅₀ₙₘ values were read with an ELISA plate reader (SpectraMax 384plus, Molecular Device) and the results were shown in FIGS. 9A-9B and Table 15. It was shown in Table 15 that the binding of BLyS protein to its receptor BAFF R could be blocked by the BLyS antibody.

biotinylated hBLyS-ECD [2] = biological target: T1, biotinylated hBLyS-ECD; assay: blocking ELISA: biotinylated hBLyS-ECD on coated BAFF R, antibody 0.0064 nM
Experimental: BLyS antibody blocking the binding of the BLyS protein to its receptor BAFF R was detected by the receptor-ligand binding assay of BLyS protein.
as §1

biotinylated hBLyS-ECD [3] = biological target: T1, biotinylated hBLyS-ECD; assay: blocking ELISA: biotinylated hBLyS-ECD on coated BAFF R, antibody 4 nM
Experimental: as §1

biotinylated hBLyS-ECD [4] = biological target: T2, biotinylated hBLyS-ECD (human, UniProt Q9Y275 134-285, biotinylated with Biotin-X-X-NHS (molar ratio 7:1), sites not stated); assay: ELISA, biotinylated hBLyS-ECD captured on streptavidin; antibody 13.3 nM
T2 construct: The hBLyS-ECD of Embodiment 1 after biotinylation (Embodiment 2); also called biotinylated immunogen; BLyS protein; not shown: His tag of the pCPC vector
T2 sequence (Q9Y275 134-285): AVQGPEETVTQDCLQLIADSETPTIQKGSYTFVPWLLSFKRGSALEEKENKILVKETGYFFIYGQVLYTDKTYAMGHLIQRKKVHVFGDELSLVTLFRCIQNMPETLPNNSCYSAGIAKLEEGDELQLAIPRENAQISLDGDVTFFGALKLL
Experimental: (§2) Streptavidin was first diluted to a final concentration of 1.0 μg/mL with PBS, and then 50 μL of diluted streptavidin per well was aliquoted into 96-well ELISA plate, which was subsequently sealed with plastic film and incubated at 4° C. overnight. On the next day the plate was washed four times with the plate washing buffer [PBS buffer containing 0.05% (v/v) Tween20] and added with the blocking solution [PBS buffer containing 0.05% (v/v) Tween20 and 1% (w/w) BSA] and blocked for 2 hours at 37° C. The blocking solution was removed, the biotinylated hBLyS-ECD prepared in Embodiment 2 was diluted with PBS to a final concentration of 50 ng/mL and then aliquoted into the 96-well ELISA plate at 50 μL per well and incubated for 1 hour at 37° C. After rinsing the plate four times with the plate washing buffer [PBS buffer containing 0.05% (v/v) Tween20], 100 μl of the purified lead antibody harvested in Embodiment 1 and 2 was pipetted into each well. After incubation for 1 hour at 37° C., the plate was rinsed four times with the plate washing buffer [PBS buffer containing 0.05% (v/v) Tween20]. HRP-labeled (horseradish peroxidase) secondary antibody (purchased from Sigma) was added in and incubated at 37° C. for 1 hour. The plate was then rinsed four times with the plate washing buffer [PBS buffer containing 0.05% (v/v) Tween20]. 100 μL of TMB substrate was aliquoted into each well and after incubation for 5 minutes at room temperature, 100 μL of stop solution (1.0 N HCl) was aliquoted into each well. A₄₅₀ₙₘ values were read via an ELISA plate reader (SpectraMax M5e purchased from Molecular Devices) and the results were shown in FIGS. 5A-5B and Table 10.

biotinylated hBLyS-ECD [5] = biological target: T2, biotinylated hBLyS-ECD; assay: ELISA, biotinylated hBLyS-ECD captured on streptavidin; antibody 0.00427 nM
Experimental: as §2

[6] = biological target: T3, cynomolgus BLyS (full length, arginine 132 mutated to histidine) on CHO-K1 cells (cynomolgus, UniProt Q9Y275 1-285 (human entry)); assay: flow cytometry (FACS) on CHO-K1 cynoBLyS cells, Alexa 488 secondary antibody
T3 construct: also called cyno BLyS; CHO-K1 cynoBLyS
T3 chain: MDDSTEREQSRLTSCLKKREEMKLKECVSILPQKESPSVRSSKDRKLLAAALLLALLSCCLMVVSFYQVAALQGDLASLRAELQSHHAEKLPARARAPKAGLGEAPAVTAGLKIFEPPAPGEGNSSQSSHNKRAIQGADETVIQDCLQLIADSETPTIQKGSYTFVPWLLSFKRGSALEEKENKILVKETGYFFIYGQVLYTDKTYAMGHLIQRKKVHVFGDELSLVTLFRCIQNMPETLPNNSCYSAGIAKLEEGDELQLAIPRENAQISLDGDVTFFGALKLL

[7] = biological target: T4, human BLyS (full length, arginine 132 mutated to histidine) on CHO-K1 cells (human, UniProt Q9Y275 1-285); assay: flow cytometry (FACS) on CHO-K1 hBLyS cells, Alexa 488 secondary antibody
T4 construct: also called hBLyS; CHO-K1 hBLyS
T4 sequence (Q9Y275 other isoform, or with tags, fused parts or gaps limits assumed, change not shown): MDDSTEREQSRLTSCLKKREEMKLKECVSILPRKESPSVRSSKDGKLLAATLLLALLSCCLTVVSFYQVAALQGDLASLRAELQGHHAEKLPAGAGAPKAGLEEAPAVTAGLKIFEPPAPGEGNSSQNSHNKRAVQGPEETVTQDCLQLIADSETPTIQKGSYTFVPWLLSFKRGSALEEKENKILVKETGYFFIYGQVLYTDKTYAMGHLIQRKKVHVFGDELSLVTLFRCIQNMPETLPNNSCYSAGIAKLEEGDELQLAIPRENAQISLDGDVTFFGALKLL

T1 sequence (Q9Y275 134-285): as the sequence (Q9Y275 134-285) above

Binder | OD450 nm (biotinylated hBLyS-ECD [1]) [OD450 nm] | OD450 nm (biotinylated hBLyS-ECD [2]) [OD450 nm] | OD450 nm (biotinylated hBLyS-ECD [3]) [OD450 nm] | OD450 nm (biotinylated hBLyS-ECD [4]) | OD450 nm (biotinylated hBLyS-ECD [5]) | EC50 (read off the curve) [6] [nM] | EC50 (read off the curve) [7] [nM]
8E7D9C7F5 (antibody, V domains shown, Mouse hybridoma monoclonal antibody purified on Protein G) VH: QVQLQQSGVELARPGASVKLSCKASGYTFTSYGISWVKQRTGQALEWIGEIYPRSGNTYYNEKFKGKATLTADKSSSTAYMELRSLTSEDSAVYFCARSGPITTLVATDYGMDYWGQGTSVTVSS VL: DIVLTQSPASLAVSLGQRATISCRASKSVSTSSYSYMHWYQQKPGQPPKLLIKFASNLESGVPARFSGSGSGTDFTLNIHPVEEEDAATYYCQHSREFPYTFGGGTKLEIK | 1.05 | 1.38 | 0.173 | – | – | – | –
L9G7 (antibody, human IgG1, V domains shown) VH: QIQLVQSGAEVKKPGASVKVSCKASGYTFTSYGISWVRQAPGQGLEWMGWISAYNGNTNYAQKLQGRVTMTTDTSTSTAYMELRSLRSDDTAVYYCARTYYDILTGYYYYGMDVWGQGTTVTVSS VL: EIVLTQSPGTLSLSPGERATLSCRTSQSVDTYLAWYQQKPGQAPRLLIYDASNRATGIPARFSGSGSGTDFTLTISSLEPEDFAVYYCQQRSNWPLTFGGGTKVEIK | – | – | – | 1.6 | 0.0853 | ~0.2 | ~0.3
L1D12 (antibody, human IgG1, V domains shown, also called LID12) VH: QVQLVQSGGGLVQPGGSLRLSCAASGFTVSSNYMSWVRQAPGKGLEWVSVIYSGGSTYYADSVKGRFTISRDNSKNTLYLQMNSLRAEDTAVYYCARGFHDILTGYGMDVWGQGTTVTVSS VL: SSELTQDPAVSVALGQTVRITCQGDSLRNYYAGWYQQKPGQAPVLVIYGKNNRPSGIPDRFSGSSSGNTASLTITGTQAEDEADYYCSSRDNSGTHLVEFGGGTKLTVL | – | – | – | 1.61 | 0.135 | ~0.2 | ~0.2
111D10D6G3 (antibody, V domains shown, Mouse hybridoma monoclonal antibody purified on Protein G) VH: QVQLQQPGAELVKPGASVKMSCKASGYTFTRHWITWVKQRPGQGLEWIGDIFPGSGSINYNEKFKSEATLTVEKSSSTAYMQLSSLTSEDSAVYYCARGDVDVWGTGTTVTVSS VL: DIQMTQSPSSLSASLGERVSLTCRASQEIRGYLSWLQQKPNGTIKRLIYAASTLDSGVPKRFSATRSGSDFSLTISSLESEDFADYYCLQYASYPFTFGSGTKLEIK | 1.14 | 1.29 | 0.67 | – | – | – | –
111D10D6G3 (antibody, V domains shown, Mouse hybridoma antibody purified on Protein G) VH: QVQLQQPGAELVKPGASVKMSCKASGYTFTRHWITWVKQRPGQGLEWIGDIFPGSGSINYNEKFKSEATLTVEKSSSTAYMQLSSLTSEDSAVYYCARGDVDVWGTGTTVTVSS VL: DIQMTQSPSSLSASLGERVSLTCRASQEIRGYLSWLQQKPNGTIKRLIYAASTLDSGVPKRFSATRSGSDFSLTISSLESEDFADYYCLQYASYPFTFGSGTKLEIK | – | – | – | 1.78 | 0.082 | ~0.1 | ~0.1
97A3C2H4 (antibody, V domains shown, Mouse hybridoma monoclonal antibody purified on Protein G) VH: EVKLVESGGGLVQPGGSLKLSCAASGFTFSTYTMSWVRQTPEKRLEWVAYISYGGGSTSYPDTVKGRFTISRDNAKNTLYLQMSSLKSEDTAIYYCTRHVTVVENSMDYWGQGTSVTVSS VL: DILLTQSPDILSVSPGERVSFSCRASQSIGTSIHWYQQRTNGSPRLLIKYVSESFSGTPSRFSGSGSGTAFTLTINSVESEDIADYYCQQTHSWPWTFGGGTKLEIK | 1.12 | 1.21 | 0.208 | – | – | – | –
97A3C2H4 (antibody, V domains shown, Mouse hybridoma antibody purified on Protein G) VH: EVKLVESGGGLVQPGGSLKLSCAASGFTFSTYTMSWVRQTPEKRLEWVAYISYGGGSTSYPDTVKGRFTISRDNAKNTLYLQMSSLKSEDTAIYYCTRHVTVVENSMDYWGQGTSVTVSS VL: DILLTQSPDILSVSPGERVSFSCRASQSIGTSIHWYQQRTNGSPRLLIKYVSESFSGTPSRFSGSGSGTAFTLTINSVESEDIADYYCQQTHSWPWTFGGGTKLEIK | – | – | – | 2.82 | 0.105 | ~0.3 | ~0.3
